Legend:
[1] = biological target: human cathepsin B (UniProt P07858)
[2] = biological target: T1, human cathepsin G (UniProt P08311)
T1 sequence: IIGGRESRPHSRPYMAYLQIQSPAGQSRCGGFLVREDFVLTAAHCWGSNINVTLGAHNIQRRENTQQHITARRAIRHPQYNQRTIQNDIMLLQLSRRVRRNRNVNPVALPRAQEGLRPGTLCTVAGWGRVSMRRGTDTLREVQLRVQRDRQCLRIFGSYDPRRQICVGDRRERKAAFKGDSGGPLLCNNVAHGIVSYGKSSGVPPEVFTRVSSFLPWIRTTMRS

[3] = biological target: T2, human cathepsin H (UniProt P09668)
T2 sequence: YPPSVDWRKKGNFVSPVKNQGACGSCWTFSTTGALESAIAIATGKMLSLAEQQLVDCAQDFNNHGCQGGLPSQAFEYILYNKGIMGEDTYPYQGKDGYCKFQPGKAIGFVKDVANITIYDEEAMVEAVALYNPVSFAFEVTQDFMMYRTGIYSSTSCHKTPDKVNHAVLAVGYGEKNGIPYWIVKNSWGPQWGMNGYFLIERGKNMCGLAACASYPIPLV

[4] = biological target: T3, human cathepsin K (UniProt P43235)
T3 sequence: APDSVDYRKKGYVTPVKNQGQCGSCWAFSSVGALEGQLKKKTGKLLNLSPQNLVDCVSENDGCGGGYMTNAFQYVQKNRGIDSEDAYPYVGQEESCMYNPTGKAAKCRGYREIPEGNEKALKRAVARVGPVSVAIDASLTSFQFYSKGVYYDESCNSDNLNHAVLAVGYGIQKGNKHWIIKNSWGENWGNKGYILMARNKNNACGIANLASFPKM

[5] = biological target: human cathepsin L (UniProt P07711)
[6] = biological target: human cathepsin V (UniProt O60911)
[7] = biological target: human elastase (UniProt P08246)
[8] = biological target: T4, human granzyme A (UniProt P12544)
T4 sequence: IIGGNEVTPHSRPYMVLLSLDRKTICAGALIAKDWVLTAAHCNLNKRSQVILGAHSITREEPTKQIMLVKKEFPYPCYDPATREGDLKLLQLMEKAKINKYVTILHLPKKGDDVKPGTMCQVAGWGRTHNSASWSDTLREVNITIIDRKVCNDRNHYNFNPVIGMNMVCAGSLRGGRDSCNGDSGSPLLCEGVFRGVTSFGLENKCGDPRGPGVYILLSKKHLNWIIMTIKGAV

[9] = biological target: human granzyme B (UniProt P10144)
[10] = tested on: Spi2A-3xFLAG (murine serine protease inhibitor 2A with a C-terminal 3xFLAG epitope tag)

Sequence of human cathepsin L (P07711 114-333): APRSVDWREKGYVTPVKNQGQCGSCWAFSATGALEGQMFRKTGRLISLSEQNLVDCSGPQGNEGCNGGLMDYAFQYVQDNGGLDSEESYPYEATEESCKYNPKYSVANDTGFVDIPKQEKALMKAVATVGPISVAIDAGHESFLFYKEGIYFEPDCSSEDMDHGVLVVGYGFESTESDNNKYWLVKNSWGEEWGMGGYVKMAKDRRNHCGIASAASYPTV
Sequence of human cathepsin V (O60911 114-334): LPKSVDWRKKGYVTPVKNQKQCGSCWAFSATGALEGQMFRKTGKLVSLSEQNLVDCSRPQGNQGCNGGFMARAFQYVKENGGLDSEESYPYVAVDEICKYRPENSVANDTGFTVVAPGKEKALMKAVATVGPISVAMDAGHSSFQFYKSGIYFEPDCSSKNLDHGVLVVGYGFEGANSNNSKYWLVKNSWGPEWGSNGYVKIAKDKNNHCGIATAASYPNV
Sequence of human granzyme B (P10144 21-247): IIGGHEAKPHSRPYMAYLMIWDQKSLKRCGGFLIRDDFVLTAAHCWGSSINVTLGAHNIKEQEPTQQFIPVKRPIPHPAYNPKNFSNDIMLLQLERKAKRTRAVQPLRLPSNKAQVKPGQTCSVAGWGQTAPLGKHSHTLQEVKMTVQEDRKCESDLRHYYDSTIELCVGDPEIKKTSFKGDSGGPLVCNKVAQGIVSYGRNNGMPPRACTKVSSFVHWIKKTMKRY
Sequence of human elastase (P08246 30-247): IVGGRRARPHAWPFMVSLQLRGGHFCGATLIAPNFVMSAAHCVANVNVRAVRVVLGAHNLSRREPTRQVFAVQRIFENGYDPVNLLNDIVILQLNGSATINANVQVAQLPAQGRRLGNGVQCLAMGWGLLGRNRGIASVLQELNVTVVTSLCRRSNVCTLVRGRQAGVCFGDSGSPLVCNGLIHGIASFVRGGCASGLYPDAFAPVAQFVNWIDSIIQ

Substance | protease activity after incubation under the same conditions as with Spi2A [1] | protease activity after incubation under the same conditions as with Spi2A [2] | protease activity after incubation under the same conditions as with Spi2A [3] | protease activity after incubation under the same conditions as with Spi2A [4] | protease activity after incubation under the same conditions as with Spi2A [5] | protease activity after incubation under the same conditions as with Spi2A [6] | protease activity after incubation under the same conditions as with Spi2A [7] | protease activity after incubation under the same conditions as with Spi2A [8] | protease activity after incubation under the same conditions as with Spi2A [9] | continuous hydrolysis of the cathepsin B substrate (Z-FR)2-R110, 20 nM cathepsin B with 200 or 400 nM Spi2A [10]
alkaline phosphatase tagged with C-terminal 3xFLAG (Sigma-Aldrich) | had no effect on protease activity | had no effect on protease activity | had no effect on protease activity | had no effect on protease activity | had no effect on protease activity | had no effect on protease activity | had no effect on protease activity | had no effect on protease activity | had no effect on protease activity | 
human cathepsin B |  |  |  |  |  |  |  |  |  | The enzyme was completely inhibited, within the dead time of the measurement

Source: patent US20040214773
